The source of these data is the supplement of paper PMC10126150.

± gives the standard deviation of the averaged measurements.

This data set deals with ATP. Briefly: switch fluorescence ratio, 500 uM ATP over buffer (Cy3 cluster intensity, sum of 5 cycles each) (fold (ratio)); higher = stronger signal-on switching upon ATP binding; sequences stand for … in TCGTCGGCAGCGTCAGATGTGTATAAGAGACAGTTTTTTTTTTTTTTTTTTTTTTTTT…TC. The note with it: aptamer strand: ATP DNA aptamer (quencher-CACCTGGGGGAGTATTGCGGAGGAAGG + anchor), 100 nM annealed; ATP concentration: 500 uM. An outline of the steps:
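Between each of five buffer/ATP cycles, the flow-cell was stripped with NaOH and re-annealed. Each cycle imaged Cy3-labelled switching-strand clusters, annealed to 100 nM quencher-labelled ATP aptamer on a modified Illumina MiSeq flow-cell, first in selection buffer and then after 15 min with 500 uM ATP at 22 °C. The fluorescence ratio is summed target-cycle over summed buffer-cycle Cy3 intensity per cluster, averaged per switch-domain sequence, with clusters outside 100-1000 RFU excluded.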
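Note: ATP exposure 15 min at 22 °C before imaging.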

In the case of GGCCATATGT, the switch fluorescence ratio came out at 1.02 ± 0.016.

For the sequence CTTAATAGAC, the switch fluorescence ratio was 2.44 ± 1.9.

As for GCTAGGGGA, the switch fluorescence ratio is 1.02 ± 0.011.

Take TATAGGACTA: the switch fluorescence ratio came to 1.01 ± 0.014.

Consider TGCCGCTTAA, for which the switch fluorescence ratio is 1.193 ± 0.0089.

CTGTAGTCGG: the switch fluorescence ratio stood at 1.02 ± 0.03.

With GGGATTGGCT, the switch fluorescence ratio stood at 1.01 ± 0.015.

In the case of AGGCTTACCC, the switch fluorescence ratio came out at 1.01 ± 0.018.

On to CGCTGATTAG, for which the switch fluorescence ratio amounted to 1.041 ± 0.0092.

For the sequence GCCCCCTTGG, the switch fluorescence ratio stood at 2.02 ± 0.026.

For the sequence GTGATTTTCT, the switch fluorescence ratio was 0.998 ± 0.015.

On to TTGGTTGTCG, for which the switch fluorescence ratio was 1.02 ± 0.019.

For ATTTTGTGGT, the switch fluorescence ratio was 1.01 ± 0.011.

TGGATATGTG: the switch fluorescence ratio was determined as 1.01 ± 0.018.

As to AAAAAGTGAG, the switch fluorescence ratio was found to be 0.973 ± 0.042.

In the case of TTTAATCATC, the switch fluorescence ratio was 1.01 ± 0.026.

On to ACTCATTTTA, for which the switch fluorescence ratio amounted to 1.02 ± 0.024.

As to ATGGGTTGGA, the switch fluorescence ratio stood at 1.008 ± 0.0088.

As to TACCTGGGTC, the switch fluorescence ratio was found to be 0.996 ± 0.028.

With CCAGGTCTAT, the switch fluorescence ratio was found to be 1.08 ± 0.018.

Regarding GGAGCTGGGG, the switch fluorescence ratio amounted to 1.04 ± 0.065.

In the case of AACTAGGTCG, the switch fluorescence ratio was 0.974 ± 0.058.

For ATCGGGAACT, the switch fluorescence ratio amounted to 1.02 ± 0.015.

With TTTGGGTTGC, the switch fluorescence ratio stood at 0.982 ± 0.014.

As to TTTTTAACTT, the switch fluorescence ratio worked out at 0.995 ± 0.022.

Consider ATATTGTAGT, for which the switch fluorescence ratio stood at 0.9969 ± 0.0089.

Turning to GCAGGGTGCG, the switch fluorescence ratio turned out to be 1 ± 0.032.

Consider GGGCCAGGGT, for which the switch fluorescence ratio was determined as 1.02 ± 0.0054.

Regarding TATGAGGATG, the switch fluorescence ratio came out at 1.01 ± 0.031.

In the case of CGGTCGGGTC, the switch fluorescence ratio is 1.01 ± 0.028.

On to GCGTCTGGGG, for which the switch fluorescence ratio was 1.019 ± 0.0046.

For ATGTTATATG, the switch fluorescence ratio stood at 1.004 ± 0.0036.

For the sequence TTTTGCCTTG, the switch fluorescence ratio is 0.967 ± 0.043.

Regarding GGCTATCGGT, the switch fluorescence ratio amounted to 0.978 ± 0.035.

Take TATTTATTGG: the switch fluorescence ratio came out at 0.999 ± 0.012.

For the sequence CTTATTAATC, the switch fluorescence ratio was determined as 1.01 ± 0.028.

Take GTATGGAGGG: the switch fluorescence ratio is 1.02 ± 0.029.

Turning to AAGGGGATAA, the switch fluorescence ratio came out at 0.99 ± 0.045.

GACTTTGTAC: the switch fluorescence ratio came out at 1.06 ± 0.014.

Consider GATTTTTCAT, for which the switch fluorescence ratio was determined as 1 ± 0.034.

Regarding GTTGGGTTCT, the switch fluorescence ratio was determined as 1.03 ± 0.021.

CGAAAGGGGA: the switch fluorescence ratio was 1.03 ± 0.018.

Turning to TTGTGATCTT, the switch fluorescence ratio came out at 0.961 ± 0.02.

With TCTAGTTAGG, the switch fluorescence ratio amounted to 1.0115 ± 0.00098.

Turning to ATCAGGGGAG, the switch fluorescence ratio is 1 ± 0.018.

Turning to ACTGAGGAT, the switch fluorescence ratio was determined as 0.9994 ± 0.003.

In the case of TTTAACACCA, the switch fluorescence ratio amounted to 1.029 ± 0.0075.

Consider ATGCTTTTTT, for which the switch fluorescence ratio amounted to 0.994 ± 0.017.

Turning to AGATTGCATA, the switch fluorescence ratio was determined as 0.994 ± 0.015.

As to CTATTGTTTT, the switch fluorescence ratio was found to be 1.03 ± 0.079.

In the case of AAAGAGGGAT, the switch fluorescence ratio was 0.986 ± 0.053.

For CCAGGAGGGA, the switch fluorescence ratio stood at 1.002 ± 0.0041.

On to GGTGAACGTG, for which the switch fluorescence ratio amounted to 0.97 ± 0.041.

Regarding CGTAAAATTT, the switch fluorescence ratio is 1.05 ± 0.12.

Turning to TTGGTACATT, the switch fluorescence ratio is 0.99163 ± 8.4e-05.

For the sequence TGCGGGTGCT, the switch fluorescence ratio amounted to 1.04 ± 0.042.

On to ATACAAATTA, for which the switch fluorescence ratio is 1.01 ± 0.027.

Turning to TTATTAAGAA, the switch fluorescence ratio was 1.02 ± 0.063.

Take AGACAGCAGC: the switch fluorescence ratio worked out at 1.05 ± 0.011.

Consider CGAAGTGGTC, for which the switch fluorescence ratio was 0.995 ± 0.059.

Regarding TAGACCTTAA, the switch fluorescence ratio stood at 1.09 ± 0.029.

With TCTGGGGCGG, the switch fluorescence ratio stood at 1.04 ± 0.074.

Turning to GGGAAAATAT, the switch fluorescence ratio came out at 0.999 ± 0.063.

TGGGAAATAG: the switch fluorescence ratio amounted to 0.9957 ± 0.0041.

Turning to AACCTTTCTT, the switch fluorescence ratio was determined as 1.46 ± 0.041.

In the case of TTGTGATTCT, the switch fluorescence ratio was 0.97032 ± 0.00028.

As to GGTTGCTGTC, the switch fluorescence ratio is 0.964 ± 0.045.

Regarding TATTTTATTT, the switch fluorescence ratio is 1 ± 0.018.

As for TTAGTGTTTG, the switch fluorescence ratio amounted to 1.02 ± 0.006.

With CGAGGGGAAG, the switch fluorescence ratio was found to be 0.992 ± 0.022.

Consider TGAGCCCCGG, for which the switch fluorescence ratio turned out to be 1.03 ± 0.028.

For the sequence GGCTAAACG, the switch fluorescence ratio stood at 1.05 ± 0.011.

As to AAGTGGGTCG, the switch fluorescence ratio is 0.9408 ± 0.0023.

Regarding GCCTAACGCG, the switch fluorescence ratio was 1.03 ± 0.018.

Regarding GAAAGGGTAC, the switch fluorescence ratio was 1.56 ± 0.65.

Turning to GAGCGAAGGA, the switch fluorescence ratio is 1.01 ± 0.029.

Consider TTGCCTTCCG, for which the switch fluorescence ratio worked out at 2.17 ± 0.27.

As for AGTGAGGCGT, the switch fluorescence ratio was 0.984 ± 0.018.

On to TGATTGGGAA, for which the switch fluorescence ratio was determined as 0.995 ± 0.021.
